Here are results for 3 molecules from publication PMC12796321, “The genetic and biochemical basis of human leading strand synthesis”.

For series [1], the target named is POLE1 ISC mutant;POLE2;POLE3;POLE4 (human;human;human;human, UniProt Q07864;P56282;Q9NRF9;Q9NR33 1-2286;1-527;1-147;1-117, C651S;C654S|||). The series can be described thus: EMSA; EMSA: 30 nM DNA, 30-120 nM protein; protein dilution buffer 25 mM Hepes pH 7.5, 100 mM NaCl, 10% glycerol, 0.5 mM EDTA, 1 mM DTT, 0.01% NP-40; 5x reaction buffer 175 mM Hepes pH 7.4, 100 mM NaCl, 10 mM DTT, 500 ug/ml BSA; on ice 20 min (legends: 15 min); native TBE gel at 4 C. The following applies: protein: recombinant;recombinant;recombinant;recombinant, tags: N-terminal streptavidin tag;;;, copies: 1;1;1;1. Background: Mobility shift assays separate free from complexed probe on a gel.
Sequence of POLE1 ISC mutant;POLE2;POLE3;POLE4 (Q07864 whole entry C651S/C654S, chain 1 of 4): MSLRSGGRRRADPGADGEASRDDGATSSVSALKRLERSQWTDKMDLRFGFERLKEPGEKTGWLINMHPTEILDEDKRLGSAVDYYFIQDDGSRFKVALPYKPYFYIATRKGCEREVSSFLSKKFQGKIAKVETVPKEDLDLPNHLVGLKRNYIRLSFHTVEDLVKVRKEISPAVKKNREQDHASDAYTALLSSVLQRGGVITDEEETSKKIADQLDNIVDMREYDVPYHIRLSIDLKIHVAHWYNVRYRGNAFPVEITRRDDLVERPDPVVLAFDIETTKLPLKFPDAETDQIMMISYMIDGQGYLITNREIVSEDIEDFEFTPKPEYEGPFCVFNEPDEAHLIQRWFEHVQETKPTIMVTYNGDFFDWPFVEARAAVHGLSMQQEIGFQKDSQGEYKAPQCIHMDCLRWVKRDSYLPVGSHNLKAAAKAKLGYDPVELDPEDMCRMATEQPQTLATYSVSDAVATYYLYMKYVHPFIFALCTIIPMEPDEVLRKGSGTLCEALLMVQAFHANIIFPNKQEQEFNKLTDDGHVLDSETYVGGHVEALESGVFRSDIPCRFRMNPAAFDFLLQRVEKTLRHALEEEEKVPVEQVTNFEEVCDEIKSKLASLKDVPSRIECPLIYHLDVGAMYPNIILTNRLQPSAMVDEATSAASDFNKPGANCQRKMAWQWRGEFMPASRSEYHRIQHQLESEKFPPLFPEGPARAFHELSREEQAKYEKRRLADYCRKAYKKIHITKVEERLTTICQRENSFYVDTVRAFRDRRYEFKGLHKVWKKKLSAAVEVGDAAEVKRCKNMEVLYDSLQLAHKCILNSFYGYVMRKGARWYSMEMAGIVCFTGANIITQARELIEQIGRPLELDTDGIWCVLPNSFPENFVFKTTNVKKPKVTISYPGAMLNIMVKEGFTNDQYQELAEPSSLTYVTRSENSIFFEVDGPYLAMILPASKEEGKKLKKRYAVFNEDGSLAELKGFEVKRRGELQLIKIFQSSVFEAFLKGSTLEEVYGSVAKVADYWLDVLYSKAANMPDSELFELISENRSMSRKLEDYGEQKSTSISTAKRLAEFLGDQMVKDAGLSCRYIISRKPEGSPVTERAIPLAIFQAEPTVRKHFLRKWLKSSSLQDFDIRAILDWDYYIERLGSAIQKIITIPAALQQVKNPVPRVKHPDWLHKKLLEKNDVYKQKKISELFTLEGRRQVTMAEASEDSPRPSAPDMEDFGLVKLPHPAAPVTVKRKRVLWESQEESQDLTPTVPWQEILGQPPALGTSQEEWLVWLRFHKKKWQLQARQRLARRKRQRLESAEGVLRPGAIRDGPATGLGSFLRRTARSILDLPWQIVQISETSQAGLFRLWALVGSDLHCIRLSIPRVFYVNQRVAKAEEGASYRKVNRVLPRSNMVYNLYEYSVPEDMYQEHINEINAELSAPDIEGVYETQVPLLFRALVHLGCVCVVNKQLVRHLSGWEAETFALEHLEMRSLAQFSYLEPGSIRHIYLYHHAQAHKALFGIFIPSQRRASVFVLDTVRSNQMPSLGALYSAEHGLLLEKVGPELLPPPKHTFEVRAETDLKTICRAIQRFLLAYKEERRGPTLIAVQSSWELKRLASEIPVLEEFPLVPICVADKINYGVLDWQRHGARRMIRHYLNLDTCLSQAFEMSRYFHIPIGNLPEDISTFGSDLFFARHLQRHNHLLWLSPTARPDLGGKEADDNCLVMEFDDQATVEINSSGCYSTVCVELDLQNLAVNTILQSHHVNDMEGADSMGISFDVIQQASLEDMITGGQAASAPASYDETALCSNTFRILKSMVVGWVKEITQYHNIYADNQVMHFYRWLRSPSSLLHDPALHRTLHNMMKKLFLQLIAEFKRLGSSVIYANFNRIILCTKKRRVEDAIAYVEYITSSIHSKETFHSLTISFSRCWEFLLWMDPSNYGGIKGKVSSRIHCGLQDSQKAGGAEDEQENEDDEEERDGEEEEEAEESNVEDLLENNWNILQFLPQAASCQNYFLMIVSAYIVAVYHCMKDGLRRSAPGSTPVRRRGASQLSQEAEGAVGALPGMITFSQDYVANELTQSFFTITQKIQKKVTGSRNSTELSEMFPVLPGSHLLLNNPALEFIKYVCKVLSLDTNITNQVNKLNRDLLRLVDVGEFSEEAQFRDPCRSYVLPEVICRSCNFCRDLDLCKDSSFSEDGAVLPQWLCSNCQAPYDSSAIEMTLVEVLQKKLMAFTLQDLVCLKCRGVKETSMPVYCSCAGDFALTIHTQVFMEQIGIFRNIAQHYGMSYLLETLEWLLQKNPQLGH
Sequence of POLE1 ISC mutant;POLE2;POLE3;POLE4 (P56282 whole entry, stated change not applied, chain 2 of 4): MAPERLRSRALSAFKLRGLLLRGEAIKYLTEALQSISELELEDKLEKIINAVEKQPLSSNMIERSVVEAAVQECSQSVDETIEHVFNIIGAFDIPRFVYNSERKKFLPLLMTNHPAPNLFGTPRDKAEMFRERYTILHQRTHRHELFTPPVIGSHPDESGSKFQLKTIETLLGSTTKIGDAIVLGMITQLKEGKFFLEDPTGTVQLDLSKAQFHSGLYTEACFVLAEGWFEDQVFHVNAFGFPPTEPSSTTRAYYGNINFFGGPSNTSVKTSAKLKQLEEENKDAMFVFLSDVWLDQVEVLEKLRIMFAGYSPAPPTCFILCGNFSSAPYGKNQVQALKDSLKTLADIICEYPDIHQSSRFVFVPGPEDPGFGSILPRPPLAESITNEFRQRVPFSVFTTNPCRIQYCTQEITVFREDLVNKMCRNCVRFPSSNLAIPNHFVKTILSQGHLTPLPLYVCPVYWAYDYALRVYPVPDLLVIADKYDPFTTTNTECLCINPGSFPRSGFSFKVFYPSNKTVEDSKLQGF
Sequence of POLE1 ISC mutant;POLE2;POLE3;POLE4 (Q9NRF9 whole entry, stated change not applied, chain 3 of 4): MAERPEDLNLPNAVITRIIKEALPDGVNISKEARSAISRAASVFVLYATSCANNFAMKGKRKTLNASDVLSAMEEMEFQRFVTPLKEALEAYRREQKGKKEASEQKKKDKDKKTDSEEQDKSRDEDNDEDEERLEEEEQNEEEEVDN
Sequence of POLE1 ISC mutant;POLE2;POLE3;POLE4 (Q9NR33 whole entry, stated change not applied, chain 4 of 4): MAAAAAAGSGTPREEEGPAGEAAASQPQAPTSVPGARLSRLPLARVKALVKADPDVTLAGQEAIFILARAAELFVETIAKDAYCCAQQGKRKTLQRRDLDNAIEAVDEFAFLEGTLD

Series [2] addresses T1, POLE1 (Pol epsilon catalytic subunit);POLE2;POLE3;POLE4 DNA binding mutant (DB/DBM) (human;human;human;human, UniProt Q07864;P56282;Q9NRF9;Q9NR33 1-2286;1-527;1-147;1-117, |||A44L;R45D;K47E;K51E). The series can be described thus: EMSA; binding abolished; EMSA: 30 nM DNA, 30-120 nM protein; protein dilution buffer 25 mM Hepes pH 7.5, 100 mM NaCl, 10% glycerol, 0.5 mM EDTA, 1 mM DTT, 0.01% NP-40; 5x reaction buffer 175 mM Hepes pH 7.4, 100 mM NaCl, 10 mM DTT, 500 ug/ml BSA; on ice 20 min (legends: 15 min); native TBE gel at 4 C. The following applies: protein: recombinant;recombinant;recombinant;recombinant; tags: N-terminal streptavidin tag;;;; copies: 1;1;1;1; label: 5' 6FAM on strand 1; blunt.

Series [3] deals with POLE1 (Pol epsilon catalytic subunit);POLE2 (human;human, UniProt Q07864;P56282 1-2286;1-527, |). Kind of series: EMSA; without POLE3-POLE4; EMSA: 30 nM DNA, 30-120 nM protein; protein dilution buffer 25 mM Hepes pH 7.5, 100 mM NaCl, 10% glycerol, 0.5 mM EDTA, 1 mM DTT, 0.01% NP-40; 5x reaction buffer 175 mM Hepes pH 7.4, 100 mM NaCl, 10 mM DTT, 500 ug/ml BSA; on ice 20 min (legends: 15 min); native TBE gel at 4 C. The following applies: protein: recombinant;recombinant; tags: N-terminal streptavidin tag;; copies: 1;1; label: 5' 6FAM.
Sequence of POLE1 (Pol epsilon catalytic subunit);POLE2 (Q07864 whole entry, chain 1 of 2): as the sequence (Q07864 whole entry C651S/C654S, chain 1 of 4) above, with S651C, S654C counted along it
Sequence of POLE1 (Pol epsilon catalytic subunit);POLE2 (P56282 whole entry, chain 2 of 2): as the sequence (P56282 whole entry, stated change not applied, chain 2 of 4) above

Series [4] has as its target T1, POLE1 (Pol epsilon catalytic …). Kind of series: EMSA; EMSA: 30 nM DNA, 30-120 nM protein; protein dilution buffer 25 mM Hepes pH 7.5, 100 mM NaCl, 10% glycerol, 0.5 mM EDTA, 1 mM DTT, 0.01% NP-40; 5x reaction buffer 175 mM Hepes pH 7.4, 100 mM NaCl, 10 mM DTT, 500 ug/ml BSA; on ice 20 min (legends: 15 min); native TBE gel at 4 C. The following applies: protein: recombinant;recombinant;recombinant;recombinant; tags: N-terminal streptavidin tag;;;; copies: 1;1;1;1; label: 5' 6FAM.

T1 sequence (Q07864 whole entry, stated change not applied, chain 1 of 4): as the sequence (Q07864 whole entry C651S/C654S, chain 1 of 4) above, with S651C, S654C counted along it
T1 sequence (P56282 whole entry, stated change not applied, chain 2 of 4): as the sequence (P56282 whole entry, stated change not applied, chain 2 of 4) above
T1 sequence (Q9NRF9 whole entry, stated change not applied, chain 3 of 4): as the sequence (Q9NRF9 whole entry, stated change not applied, chain 3 of 4) above
T1 sequence (Q9NR33 whole entry A44L/R45D/K47E/K51E, chain 4 of 4): as the sequence (Q9NR33 whole entry, stated change not applied, chain 4 of 4) above, with A44L, R45D, K47E, K51E counted along it

B1: EMSA dsDNA 49 bp (dsDNA)
DNA 1: AGCTACCATGCCTGCACGAATTAAGCAATTCGTAATCATGGTCATAGCT
DNA 2: AGCTATGACCATGATTACGAATTGCTTAATTCGTGCAGGCATGGTAGCT
Consider B1, for which the binding result in series [1] (label: 5' 6FAM on strand 1, blunt) is reported as “binds”; in series [2], “no binding”.

B2: EMSA leading strand fork (dsDNA)
DNA 1: B1 DNA 1
DNA 2: CTACAGTTCGTCAGGATTCC
DNA 3: AGCTATGACCATGATTACGAATTGCTTGGAATCCTGACGAACTGTAG
For B2, the binding result in series [1] (label: 5' 6FAM on strand 1, fork 1:3 (27 bp) 2:3 (20 bp), 22 nt 5' flap on strand 1) is recorded as “binds”.

B3: EMSA ssDNA 49-mer (ssDNA)
DNA: B1 DNA 1
Take B3: the binding result in series [3], in series [4] and in series [1] (label: 5' 6FAM) was “binds” each time.
